Assay results reported in article PMC9119168.

Target: 10 amino acid biotinylated and ADP-ribosylated peptide [ARTK(Bio)QTARK (Aoa-RADP)S]
Assay: AlphaScreen or HTRF

Sequence of MERS-CoV Mac1, His-tagged (domain or fragment) (K9N638 1110-1276 limits assumed): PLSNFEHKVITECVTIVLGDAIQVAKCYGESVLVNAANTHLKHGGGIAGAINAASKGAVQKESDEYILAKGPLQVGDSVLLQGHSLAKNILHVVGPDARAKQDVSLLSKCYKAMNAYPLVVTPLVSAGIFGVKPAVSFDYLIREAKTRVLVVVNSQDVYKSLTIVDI

“MERS-CoV Mac1, His-tagged (domain or fragment)” and “SARS-CoV Mac1, His-tagged (domain or fragment)” fall in the same range of macrodomain concentration at the maximum AS signal: 1.25 to 2.5 µM for the first, 1.25 to 2.5 µM for the second.

First: SARS-CoV-2 Mac1 (conserved macrodomain of non-structural protein 3), His-tagged (from UniProt P0DTD1) (domain or fragment)
Second: human macrodomain Mdo2, His-tagged (domain or fragment)
The macrodomain concentration at the maximum AS signal of the first is 16-fold higher: 0.625 µM for the first, 0.04 µM for the second.
